Among the targets are A3Fc-CD2 Y307A (human, UniProt Q9HC16 197-221+Q8IUX4:220-373, Y307A;internal_change); A3Fc-CD2 W310A (human, UniProt Q9HC16 197-221+Q8IUX4:220-373, W310A;internal_change); A3Fc-CD2 Y314A (human, UniProt Q9HC16 197-221+Q8IUX4:220-373, Y314A;internal_change); A3Fc-CD2 D313A (human, UniProt Q9HC16 197-221+Q8IUX4:220-373, D313A;internal_change); A3Fc-CD2 Y308A (human, UniProt Q9HC16 197-221+Q8IUX4:220-373, Y308A;internal_change); A3Fc-CD2 F309A (human, UniProt Q9HC16 197-221+Q8IUX4:220-373, F309A;internal_change).

What all share (assay): BLI
A general note: In BLI a coated tip is dipped into the sample, and binding shifts an interference pattern.

The target of series [1] is HIV-1 viral infectivity factor (Vif), full length, refolded, biotinylated (HIV-1) (UniProt P12504).

These results are taken from publication PMC4956467.

As a reminder, the Kd is the equilibrium constant for the complex coming apart. Lower therefore signals higher affinity.

Regarding “A3Fc-CD2 L263A (from UniProt Q9HC16 197-221; Q8IUX4 218-373) (domain or fragment)”, the equilibrium dissociation constant (Kd) in series [1] was found to be 1.1 µM.

The molecule “chimeric A3F C-terminal domain (A3Fc-CD2), wild type (from UniProt Q9HC16 197-221; Q8IUX4 218-373) (domain or fragment)” displayed a Kd in series [1] of 1.1 µM.

Turning to TCCCTCAGACCCTTTTAGTCAGTGTGGAAAATCTCTAGCAGT (ssDNA) [42-mer ssDNA, viral U5 end of 3'-LTR], the Kd with A3Fc-CD2 Y307A is 410 µM; with A3Fc-CD2 W310A it was 27 µM; in the series with A3Fc-CD2 Y314A, 68 µM; with A3Fc-CD2 D313A, 220 µM; in the series with A3Fc-CD2 Y308A it was 18 µM; with A3Fc-CD2 F309A, 31 µM.
